The labels stand for the following.
B1: MBP-TRAK1_(342-431) [human] / MIRO1_(177-591) [human] (parent)
chain 1: EAQEELKNLRNKTMPNTTSRRYHSLGLFPMDSLAAEIEGTMRKELQLEEAESPDITHQKRVFETVRNINQVVKQRSLTPSPMNIPGSNQS
chain 2: EEKEMKPACIKALTRIFKISDQDNDGTLNDAELNFFQRICFNTPLAPQALEDVKNVVRKHISDGVADSGLTLKGFLFLHTLFIQRGRHETTWTVLRRFGYDDDLDLTPEYLFPLLKIPPDCTTELNHHAYLFLQSTFDKHDLDRDCALSPDELKDLFKVFPYIPWGPDVNNTVCTNERGWITYQGFLSQWTLTTYLDVQRCLEYLGYLGYSILTEQESQASAVTVTRDKKIDLQKKQTQRNVFRCNVIGVKNCGKSGVLQALLGRNLMRQKKIREDHKSYYAINTVYVYGQEKYLLLHDISESEFLTEAEIICDVVCLVYDVSNPKSFEYCARIFKQHFMDSRIPCLIVAAKSDLHEVKQEYSISPTDFCRKHKMPPPQAFTCNTADAPSKDIFVKLTTMAMYPHVTQADLKSST
B2: MBP-TRAK1_(342-431) [human] / MIRO1_(177-591) [human] (parent)
chain 1: B1 chain 2
chain 2: B1 chain 1

Experiment [1] covers variants of B1. The experiment in a line: ITC. As to conditions: with MIRO1_(177-591) [human]; 370 µM MBP-TRAK1(342-431) 400KR401 to AA in syringe, 30 µM MIRO1(177-591) in cell; ITC buffer with 5 mM EGTA.
Variants of B2 are the subject of experiment [2]. As to the kind of experiment: ITC. As to conditions: with MIRO1_(177-591) [human]; 370 µM MIRO1(177-591) in syringe, 35 µM MBP-TRAK1(342-431) 400KR401 to AA in cell; ITC buffer with 5 mM EGTA.

Our source for the Kd and screen value values is publication PMC10746525.

As usually defined, the Kd is the concentration at which binding is half-saturated.

In the case of chain 1 K59A R60A, in the experiment with MIRO1_(177-591) [human] [1], the Kd amounted to 9.62 µM and the screen value worked out at 0.91.

Take chain 2 K59A R60A: in the experiment with MIRO1_(177-591) [human] [2], the Kd worked out at 7.52 µM and the screen value came to 0.74.
